In patent US20210181204A1 (SYNGENTA PARTICIPATIONS, published 2021):

Legend:
[1] = target: Cry1Aa insecticidal protein (Bacillus thuringiensis subsp. aizawai, UniProt P0A367 12-1176); experiment: direct ELISA, coated protein, SA-AP, 405 nm
[2] = target: Cry1Ai insecticidal protein; experiment: direct ELISA, coated protein, SA-AP, 405 nm
[3] = target: eCry3.1Ab hybrid insecticidal protein; experiment: direct ELISA, coated protein, SA-AP, 405 nm
[4] = target: Cry1Ab.1Ca insecticidal protein; experiment: direct ELISA, coated protein, SA-AP, 405 nm
[5] = target: T1, Cry1Ab insecticidal protein (Bacillus thuringiensis, UniProt P0A370 1-615); experiment: direct ELISA, coated protein, SA-AP, 405 nm
[6] = target: T2, mCry3A insecticidal protein (Bacillus thuringiensis subsp. …, UniProt P0A379 48-644, limits assumed); experiment: direct ELISA: protein coated at 500 ng/ml, 10 nM tagged synNAPS with SA-AP
T2 construct: also called modified Cry3A
T2 sequence: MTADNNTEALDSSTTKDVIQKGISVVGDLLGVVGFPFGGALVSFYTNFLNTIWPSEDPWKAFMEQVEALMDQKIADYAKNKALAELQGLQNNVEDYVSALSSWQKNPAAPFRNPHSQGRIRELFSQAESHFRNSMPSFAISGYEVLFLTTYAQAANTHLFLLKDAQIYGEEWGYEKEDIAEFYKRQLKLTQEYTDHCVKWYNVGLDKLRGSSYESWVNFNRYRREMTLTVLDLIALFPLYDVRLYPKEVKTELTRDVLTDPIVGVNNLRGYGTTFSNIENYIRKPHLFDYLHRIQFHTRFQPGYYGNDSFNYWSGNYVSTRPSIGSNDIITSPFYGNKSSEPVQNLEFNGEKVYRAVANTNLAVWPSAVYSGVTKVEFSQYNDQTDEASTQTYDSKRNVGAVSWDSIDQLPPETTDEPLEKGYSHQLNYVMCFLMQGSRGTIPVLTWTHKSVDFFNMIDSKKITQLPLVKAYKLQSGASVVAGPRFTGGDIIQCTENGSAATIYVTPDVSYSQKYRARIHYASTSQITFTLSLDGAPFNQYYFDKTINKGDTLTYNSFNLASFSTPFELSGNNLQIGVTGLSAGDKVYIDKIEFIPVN

[7] = target: eCry3.1Ab hybrid insecticidal protein; experiment: Bio-Layer Interferometry, target 15.6 nM to 1 uM
[8] = target: T1, Cry1Ab insecticidal protein; experiment: Bio-Layer Interferometry, target 15.6 nM to 1 uM
[9] = target: T2, mCry3A insecticidal protein; experiment: direct ELISA, coated protein, SA-AP, 405 nm
[10] = target: Cry1Ai insecticidal protein; experiment: direct ELISA: protein coated at 500 ng/ml, 10 nM tagged synNAPS with SA-AP
[11] = target: T1, Cry1Ab insecticidal protein; experiment: as above
[12] = target: T2, mCry3A insecticidal protein; experiment: direct ELISA: mCry3A coated at 1 ug/ml, RGS-His HRP detection
[13] = target: T2, mCry3A insecticidal protein; experiment: direct ELISA on coated mCry3A
[14] = target: T2, mCry3A insecticidal protein; experiment: Bio-Layer Interferometry, target 15.6 nM to 1 uM
[15] = target: T1, Cry1Ab insecticidal protein; experiment: direct ELISA on coated Cry1Ab, RGS-His HRP
[16] = target: T1, Cry1Ab insecticidal protein; experiment: direct ELISA: Cry1Ab coated at 1 ug/ml, RGS-His HRP detection

B1: synNAPS-7tag ligand (designed binder)
chain: MRGSHHHHHHGSVKVKFKVHGKEKEVDTSKILAVARWGKAVIFAYDDNGKHGRGQVSEKDAPKELLDMLARAEREKKLGSGLNDIFEAQKIEWH
modifications: in vivo biotinylation (E. coli BirA strain) on the C-terminal avidin-tag
notes: also called tagged synNAPS 7
Question: Does B1 bind [1]?
Answer: no binding (tested: 10 nM)

Question: Does B1 bind [2]?
Answer: no binding (tested: 10 nM)

Question: Does B1 bind [3]?
Answer: no binding (tested: 10 nM)

Question: Does B1 bind [4]?
Answer: no binding (tested: 10 nM)

Question: Does B1 bind [5]?
Answer: no binding (tested: 10 nM)

Question: And the “Binding to Insecticidal Protein (read at 405 nm)” value (“Binding to Insecticidal Protein” below) [6]?
Answer: 0.7 absorbance 405 nm

B2: synNAPS-14 ligand (designed binder)
chain: MVKVKFKYKGEEKEVDTSKIIFVYRFGKFVMFIYDDNGKTGHGDVREKDAPKELLDMLARAEREKK
Question: Does B2 bind [7]?
Answer: binds

B3: synNAPS-1 ligand (designed binder)
chain: MVKVKFGPWGEEKEVDTSKIVDVWRWGKYVDFFYDDNGKVGIGSVTEKDAPKELLDMLARAEREKK
Question: Does B3 bind [8]?
Answer: binds

B4: synNAPS-3tag ligand (designed binder)
chain: MRGSHHHHHHGSVKVKFRWGGEEKEVDTSKIWYVARVGKWVLFGYDDNGKRGAGRVREKDAPKELLDMLARAEREKKLGSGLNDIFEAQKIEWH
modifications: in vivo biotinylation (E. coli BirA strain) on the C-terminal avidin-tag
notes: also called tagged synNAPS 3
Question: Which results are given for B4?
Answer: binding result [1]: no binding (tested: 10 nM); binding result [9]: no binding (tested: 10 nM); binding result [3]: no binding (tested: 10 nM); binding result [4]: no binding (tested: 10 nM); Binding to Insecticidal Protein (read at 405 nm) [10]: 1.5 absorbance 405 nm; Binding to Insecticidal Protein (read at 405 nm) [11]: 0.75 absorbance 405 nm

B5: synNAPS-6tag ligand (designed binder)
chain: MRGSHHHHHHGSVKVKFMRWGEEKEVDTSKITYVTRWGKTVIFYYDDNGKKGHGSVLEKDAPKELLDMLARAEREKKLGSGLNDIFEAQKIEWH
modifications: in vivo biotinylation (E. coli BirA strain) on the C-terminal avidin-tag
notes: also called tagged synNAPS 6
Question: Does B5 bind [1]?
Answer: no binding (tested: 10 nM)

Question: Does B5 bind [2]?
Answer: no binding (tested: 10 nM)

Question: Does B5 bind [3]?
Answer: no binding (tested: 10 nM)

Question: Does B5 bind [4]?
Answer: no binding (tested: 10 nM)

Question: Does B5 bind [5]?
Answer: no binding (tested: 10 nM)

Question: What about the “Binding to Insecticidal Protein” value [6] of the same binder?
Answer: 1.1 absorbance 405 nm

B6: synNAPS-3 ligand (designed binder)
chain: MVKVKFRWGGEEKEVDTSKIWYVARVGKWVLFGYDDNGKRGAGRVREKDAPKELLDMLARAEREKK
Question: Does B6 bind [8]?
Answer: binds

B7: synNAPS9 variant Q8A (designed binder)
chain: RGSHHHHHHGSMVKVKFAAGGEEKEVDTSKIYRVPRHGKIVFFMYDDNGKGGFGHVTEKDAPKELLDMLARAEREKK
Question: For B7, which “Binding (OD 450 nm)” value [12] is on record?
Answer: 2.8 OD 450 nm

Question: What about the “binding affinity as percent of SEQ ID NO:17” value [13] of the same binder?
Answer: ~112%

B8: synNAPS9 variant M33A (designed binder)
chain: RGSHHHHHHGSMVKVKFAQGGEEKEVDTSKIYRVPRHGKIVFFAYDDNGKGGFGHVTEKDAPKELLDMLARAEREKK
Question: Which “Binding (OD 450 nm)” value [12] does the source give for B8 here?
Answer: 2.8 OD 450 nm

Question: And the “binding affinity as percent of SEQ ID NO:17” value [13]?
Answer: ~112%

B9: synNAPS-6 ligand (designed binder)
chain: MVKVKFMRWGEEKEVDTSKITYVTRWGKTVIFYYDDNGKKGHGSVLEKDAPKELLDMLARAEREKK
Question: Does B9 bind [14]?
Answer: binds

B10: synNAPS-11 ligand (designed binder)
chain: MVKVKFGLGGEEKEVDTSKIRRVLRLGKLVSFTYDDNGKIGLGDVHEKDAPKELLDMLARAEREKK
Question: Does B10 bind [7]?
Answer: binds

B11: synNAPS2 variant R44A (designed binder)
chain: RGSHHHHHHGSMVKVKFKYKGEEKEVDTSKIVWIGRFGKSVYFRYDDNGKTGAGAVYEKDAPKELLDMLARAEREKK
Question: What does the source list for B11?
Answer: binding result [15]: no binding; Binding (OD 450 nm) [16]: 0 OD 450 nm

B12: synNAPS2 variant W22A (designed binder)
chain: RGSHHHHHHGSMVKVKFKYKGEEKEVDTSKIVAIGRFGKSVYFRYDDNGKTGAGRVYEKDAPKELLDMLARAEREKK
Question: What does the source list for B12?
Answer: binding result [15]: no binding; Binding (OD 450 nm) [16]: 0 OD 450 nm

B13: synNAPS2 variant Y31A (designed binder)
chain: RGSHHHHHHGSMVKVKFKYKGEEKEVDTSKIVWIGRFGKSVAFRYDDNGKTGAGRVYEKDAPKELLDMLARAEREKK
Question: Does B13 bind [15]?
Answer: no binding

Question: And the “Binding (OD 450 nm)” value [16]?
Answer: 0 OD 450 nm

B14: synNAPS2 variant S29A (designed binder)
chain: RGSHHHHHHGSMVKVKFKYKGEEKEVDTSKIVWIGRFGKAVYFRYDDNGKTGAGRVYEKDAPKELLDMLARAEREKK
Question: Does B14 bind [15]?
Answer: no binding

Question: And the “Binding (OD 450 nm)” value [16]?
Answer: 0 OD 450 nm

B15: synNAPS-8 ligand (designed binder)
chain: MVKVKFHGRGEEKEVDTSKIFWVYRDGKRVLFRYDDNGKRGFGSVPEKDAPKELLDMLARAEREKK
Question: Does B15 bind [14]?
Answer: binds

B16: synNAPS-10 ligand (designed binder)
chain: MVKVKFLMKGEEKEVDTSKIKWVNRHGKYVAFYYDDNGKTGGGEVREKDAPKELLDMLARAEREKK
Question: Does B16 bind [7]?
Answer: binds

B17: synNAPS-5 ligand (designed binder)
chain: MVKVKFVLKGEEKEVDTSKITYVARYGKFVQFDYDDNGKFGAGVVLEKDAPKELLDMLARAEREKK
Question: Does B17 bind [8]?
Answer: binds

B18: synNAPS-8tag ligand (designed binder)
chain: MRGSHHHHHHGSVKVKFHGRGEEKEVDTSKIFWVYRDGKRVLFRYDDNGKRGFGSVPEKDAPKELLDMLARAEREKKLGSGLNDIFEAQKIEWH
modifications: chain 1: biotinylated in vivo on the C-terminal avidin-tag (E. coli BirA strain). The patent does not name the residue; it is presumably the tag's Lys, pos 90, written K.
notes: also called tagged synNAPS 8
Question: Does B18 bind [1]?
Answer: no binding (tested: 10 nM)

Question: Does B18 bind [2]?
Answer: no binding (tested: 10 nM)

Question: Does B18 bind [3]?
Answer: no binding (tested: 10 nM)

Question: Does B18 bind [4]?
Answer: no binding (tested: 10 nM)

Question: Does B18 bind [5]?
Answer: no binding (tested: 10 nM)

Question: What about the “Binding to Insecticidal Protein” value [6] of the same binder?
Answer: 1.6 absorbance 405 nm

B19: synNAPS-12 ligand (designed binder)
chain: MVKVKFKLTGEEKEVDTSKIQWVARFGKFVDFLYDDNGKTGWGWVYEKDAPKELLDMLARAEREKK
Question: Does B19 bind [7]?
Answer: binds

B20: synNAPS-4 ligand (designed binder)
chain: MVKVKFKYKGEEKEVDTSKISYVQRAGKSVYFNYDDNGKTGGGRVFEKDAPKELLDMLARAEREKK
Question: Does B20 bind [8]?
Answer: binds

B21: synNAPS-7 ligand (designed binder)
chain: MVKVKFKVHGKEKEVDTSKILAVARWGKAVIFAYDDNGKHGRGQVSEKDAPKELLDMLARAEREKK
Question: Does B21 bind [14]?
Answer: binds

B22: synNAPS-12tag ligand (designed binder)
chain: MRGSHHHHHHGSVKVKFKLTGEEKEVDTSKIQWVARFGKFVDFLYDDNGKTGWGWVYEKDAPKELLDMLARAEREKKLGSGLNDIFEAQKIEWH
modifications: in vivo biotinylation (E. coli BirA strain) on the C-terminal avidin-tag
notes: also called tagged synNAPS 12
Question: Which results are given for B22?
Answer: binding result [1]: no binding (tested: 10 nM); binding result [9]: no binding (tested: 10 nM); binding result [2]: no binding (tested: 10 nM); binding result [3]: no binding (tested: 10 nM); binding result [4]: no binding (tested: 10 nM); binding result [5]: no binding (tested: 10 nM)

B23: synNAPS-14tag ligand (designed binder)
chain: MRGSHHHHHHGSVKVKFKYKGEEKEVDTSKIIFVYRFGKFVMFIYDDNGKTGHGDVREKDAPKELLDMLARAEREKKLGSGLNDIFEAQKIEWH
modifications: in vivo biotinylation (E. coli BirA strain) on the C-terminal avidin-tag
notes: also called tagged synNAPS 14
Question: Does B23 bind [1]?
Answer: no binding (tested: 10 nM)

Question: Does B23 bind [9]?
Answer: no binding (tested: 10 nM)

Question: Does B23 bind [2]?
Answer: no binding (tested: 10 nM)

Question: Does B23 bind [3]?
Answer: no binding (tested: 10 nM)

Question: Does B23 bind [4]?
Answer: no binding (tested: 10 nM)

Question: Does B23 bind [5]?
Answer: no binding (tested: 10 nM)
